Data on 41 sequences can be found in the nanobody polyreactivity screen of Harvey et al. (2022).

The nature of the data set: yeast display, Sf9 membrane polyspecificity reagent, FACS + sequencing; frameworks hold sequencing errors. Put shortly:
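Using colony PCR, genes from sorted yeast display clones were amplified, then sequenced on MiSeq at 2 × 250 and filtered by CDR length. The clones had been stained with 10% biotinylated, detergent-solubilized Sf9 membrane reagent for 1 hour at 4 °C and sorted by FACS into low and high (top ~1%) gates on anti-HA and streptavidin fluorescence. Polyreactivity labels come from the gate of origin.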
As for “QVQLVESGGGLVQAGGSLSLICAASGNTFPPYAMGWYRQAPGKERELVAAISCGGRTYYADSVKGRFTISRDNAKNTVYLQMNSLTPEDTAVYYCAVYVPNYYSYHYDYWGQGTQVTVSS”, the “polyreactivity (PSR sort gate)” value is on record as “high polyreactivity”.
The entry for “QVQLVESGGGLVQAGGSLSLICAASGSIFAPNAMGLYRQAPGKERELDATITKRGGNTYYADSVKGRFTISRDNAINTVYLKMNSLKPEDSAVFYCNDSPYSRWSSYGYDYWGQGTQVTVSS” is “low polyreactivity”; for “QVQLVESGGGLVQAGGSLSLICAASGSTFNLYPMGGYRKAPGKERELVAAISRGGSTNYADSVKGRFTISRDNAKNTVYLQMNSLIPEDTAVYYCAARSWYDRYPYYSWGQGTQLTVSS” it is “high polyreactivity”.
Turning to “QVQLVESGGGLVQAGGSLSLICAASGTTFYYYAMGWYRQAPGKERELVAANTLRGTSTYYADSVKGRFTISRDNAKNTVDLQMNRLKPEDTAVYYCAVETYYSIFDIYDYWGQGTQVTVSS”, the “polyreactivity (PSR sort gate)” value was “low polyreactivity”.
The result for “QVQLVESGGGLVQAGGSLSLICDASGRTFTRYVMGWYRHAPGKERELVAAISSSGGTYYADSVKGRFTISRDNAKNTVYLQMNSLKPEDTAVYYCAVGSKLSRSYGYYYWGQGTQVTVSS” reads “high polyreactivity”; that for “QVQLVESGGGLVQAGGSLSLRCAASGGTFAPYAMGWYRQAPGTERELDAAISWSGGSTYYADSVKGLFTISRDNAKISVYLQMNSLKPEDTAVYYCAGRLTRGIYSTYYYWGQGTQGTVSS”, “high polyreactivity”; that for “QVQLVESGGGLVQAGGSLSLSCAASARIFYGYAMGWYRQEPGKEREFVAAITSGGRTYYADSVKGRFTISRDNAKNTVYLQMNSLKPEDTAVYYCAAAQYYRYGYWGQGTQVTVSS”, “high polyreactivity”.
Take “QVQLVESGGGLVQAGGSLSLSCAASARTFYYYAMGWSRQAPGKEREFVASITWRGGRTYYADSVKGRFTISRDNAKNTVYLQMNSLKPEDTAVYYCAADGSYAIGGYGYWGQGTQVTVSS”: the “polyreactivity (PSR sort gate)” value is on record as “high polyreactivity”.
The result for “QVQLVESGGGLVQAGGSLSLSCAASGFIFGGNAMGWYRQAPGKERELVAAISSGGRTYYADSVKGRFTISRDNAKNTVYLQMNSLKPEDTAVYYLNDYSYHRGRDYWGQGTQVTVSS” reads “low polyreactivity”; that for “QVQLVESGGGLVQAGGSLSLSCAASGFIFSYYVMGWYRQAPGKERELVAAINESGGRTYYADSVKGRFTISRDNAKNTVYLQMNSLNPEDTAVYYCAASVLNKIQGYRDYYWGQGTQVTVSS”, “low polyreactivity”; that for “QVQLVESGGGLVQAGGSLSLSCAASGFIFTPYTMGWYREAPGKERELVAAITDGSSTNYADSVKGRFTISRDNAKNTVYLQMNSLKPEDTAVYYCAKDWPSAVYGSWAGRYDYWGQGSQVTVSS”, “low polyreactivity”.
The entry for “QVQLVESGGGLVQAGGSLSLSCAASGFTFPLYAMGWYRPAPGKERELVASISKSGGRTYYADSVKGRFTISRDNAKNTVYLQMNSLKPEDTAVYYCATLPRYYGYWGQGTQVTVSS” is “high polyreactivity”.
On to “QVQLVESGGGLVQAGGSLSLSCAASGFTFRWYAMGWYRQAPGKERELVAAISSDDDTSYADSVKGRFTISRDNAKNTVYLQMNSLKPEDTAVYDCAADGYYTLDAYPYGIFWYDYWGQGTQVTVSS”, for which the “polyreactivity (PSR sort gate)” value was “low polyreactivity”.
Turning to “QVQLVESGGGLVQAGGSLSLSCAASGFTFRYNAMGWYRQAPGKERELVARISSTGGGTSYADSVKGRFTISRDNAKNTVYLQMNSLKPEDTAVYYCAAPVRRYPYPGRFYYWGQGTQVTVSS”, the “polyreactivity (PSR sort gate)” value is on record as “low polyreactivity”.
Regarding “QVQLVESGGGLVQAGGSLSLSCAASGFTFSVYVLGWYRQAPGKERELVAAISSGGDTTYADSVKGRFTISRDNAKNTVYLQMNSLNPVDTAVYYCAADPGYYSWGSSQDDYWGQGTQVTVSS”, the “polyreactivity (PSR sort gate)” value is listed as “low polyreactivity”.
Turning to “QVQLVESGGGLVQAGGSLSLSCAASGFTFYENAMGWYRQAPGKERELVATISYSGGTTYYADSVKGRFTISRDNAKNTVYLQMNSLKPEDTAVYYCNADYFYYGFPDDYWGQGTQVTVSS”, the “polyreactivity (PSR sort gate)” value was “low polyreactivity”.
Take “QVQLVESGGGLVQAGGSLSLSCAASGFTFYYYAMGLYRQAPGKERELVAAISWSGGSTYYADSVKGRFTISRDIAKNSVYLQMNCLKPEYTAVYYCNAVGYTAYDYWGQGTQVTVSS”: the “polyreactivity (PSR sort gate)” value was “high polyreactivity”.
“QVQLVESGGGLVQAGGSLSLSCAASGGTFSPYAMGWYRQAPGKERELVAITSSDSTNYADSVKGRFTISRDNAKNTVYLQMNSLKPEDTAVYYCNAGYPIPEDYLAYGNFDYWGQGTQVTVSS”: the “polyreactivity (PSR sort gate)” value was “low polyreactivity”.
The entry for “QVQLVESGGGLVQAGGSLSLSCAASGGTFSYYAMGWYRQAPGKGELVAAISSGGSTNYADSVKGRFTISRDNAINTAYLQMNSLKPEDTAVYYCADRYRFWGPYNYWGQGTQVTVSS” is “high polyreactivity”; for “QVQLVESGGGLVQAGGSLSLSCAASGGTFYQYAMGWYRQAPGKERELVAAISTSGARTYYADSVKGRFTISRDNAKNTVYLQMNSLKTEDTAVYYCAADHIRGGLDYWGQGTQVTVSS” it is “high polyreactivity”.
The entry for “QVQLVESGGGLVQAGGSLSLSCAASGIIFVDYAMGWYRQAPGKERELVAVIRSAGSTYYADSVKGRFTISRDNAKNTVYLQMNSLKPEDTAVYYCNARARGARRYYYWGQGTQVTVSS” is “high polyreactivity”; for “QVQLVESGGGLVQAGGSLSLSCAASGLIFITYAMGWYRQAPGKERELVATITLRGGSTYYADSVKGRFTISRDNAKNTVYLQMNSLKPEDTAVYYCAADVGYWGRSRGYPSDDYDYWGQGTQVTVSS” it is “low polyreactivity”; for “QVQLVESGGGLVQAGGSLSLSCAASGLIFYYYAMGWYRQAPGKERELVAAISGSGGSTYYADSVKGRFTISRDNAKNTVYLQMNSLKPEDTAVYYCAAESQYTYGYGYWGQGTQVTVSS” it is “high polyreactivity”.
Consider “QVQLVESGGGLVQAGGSLSLSCAASGLIYYSYAMGWYRQAPGKERELVAAITGGGSTNYADSVKGRFTISPDNAKNTVYLQMNSLKPEDTAVYYCAAAFTLRKYDYWGQGTQVSVSS”, for which the “polyreactivity (PSR sort gate)” value is listed as “low polyreactivity”.
The result for “QVQLVESGGGLVQAGGSLSLSCAASGLTFVDNAMGWYRQAPWKERELVAAISYNGGSTYYADSVKGRFTISRDHAKTTVYLQMNSLKPEDTAVYSCAADIYVGRYGDMDFWGQGTQVTVSS” reads “low polyreactivity”; that for “QVQLVESGGGLVQAGGSLSLSCAASGRIFGHNAMGWYRQAPGKERELVATISSGVRTNYADSVKGRFTISRDNAKNTVYLQMNSLKPEDTAVYYCATKTYQFGYSSYYYWGQGTQVTVSS”, “high polyreactivity”.
The result for “QVQLVESGGGLVQAGGSLSLSCAASGRIFSTYAMGWYRQAPGKERELVAAITSRGTSTYYADSVKGRFTISRDNAKNTVYLQINSLKPEDSAVYYCAARRERWSSSIVGYWGQGTQVTVSS” reads “high polyreactivity”; that for “QVQLVESGGGLVQAGGSLSLSCAASGRIFVSYAMGWYRQAPGKERELVAAISYSGGSTYYADSVKGRFTISRDNAKNTVYLQMNSLKPEDTAVYYCAKDGGVYAPAGDDDYWGQGTQVTVSS”, “low polyreactivity”.
Take “QVQLVESGGGLVQAGGSLSLSCAASGRIIKFYAMGWYRQAPGKERELVARISRSGGRTYYSDSVKGRFTISRDNAKNTVYLQMNSLKPEDPAVYYCNADGDNRRDRYEYWGQGTQVTVSS”: the “polyreactivity (PSR sort gate)” value is “low polyreactivity”.
The entry for “QVQLVESGGGLVQAGGSLSLSCAASGRSFFNYAMGWYRQAPGKERELVAAISFSDGSTYYADSVKGRFTISRDNAKNTVYLQMNSLKPEDTAVYYCAAEPDYVYYRSDQALFDYWGQGTQVTVSS” is “high polyreactivity”; for “QVQLVESGGGLVQAGGSLSLSCAASGRTFDDNAMGWYRQAPGKERELVAAISSTGSTNYADSLKGRFTISRDNAKNTVYLQMNSLKPEDTAVYYCNTDGGHERAYYYWGQCTQVTVSS” it is “low polyreactivity”.
With “QVQLVESGGGLVQAGGSLSLSCAASGRTLYLYTMGWYRQAPGKERELVASINWRGSTYYADSVKGRFTISRDNAKNTVYLQMNSLKPEDTAVYYCNVGGPSGGMYYWGQGTQVTVSS”, the “polyreactivity (PSR sort gate)” value is recorded as “low polyreactivity”.
Turning to “QVQLVESGGGLVQAGGSLSLSCAASGSIFDYYDMGWYRQSPGKERQLVAAITGSGGNTYYADSVKGRFTISRDNAKNTVYLQMNSLKPEDTAVYYCAAYGLYGAHTGYGSWGQCTQVTVSS”, the “polyreactivity (PSR sort gate)” value is on record as “high polyreactivity”.
The entry for “QVQLVESGGGLVQAGGSLSLSCAASGSIFFYAMGGYRPAPGKERELVADITYTGGSKYADSVKGRFTISRDNAKYTVYLQMNSLKPEDTAVYSCAKLDGGLFDYWGHGTQVTVSS” is “low polyreactivity”.
The result for “QVQLVESGGGLVQAGGSLSLSCAASGSIFGDYVLGWYRQAPGKERELVAAINRGGSTYYADSVKGRFTISRDNAKNTVYLQMNSLKPEDTAVYYCAAGYPSWYYGYPYDSWGLGTQVTVSS” reads “low polyreactivity”; that for “QVQLVESGGGLVQAGGSLSLSCAASGSIFPYYAMGWYRQAPGKESELVAAISRGGGTTYYADSVKGRFTISRDNAKNSVYLQMNSLKPEDTAVYSGAARRWGEYDYWGQGTQVTVSS”, “high polyreactivity”; that for “QVQLVESGGGLVQAGGSLSLSCAASGSIFVRYAMGWSRHAPWKERELVAAISVRGGRTYYAYSVKGRFTISRDNAKNTVYLQMNRLKPEATAVYYCAAQLYYYYSYVPPGGYWGQGTQVTVSA”, “high polyreactivity”.
As to “QVQLVESGGGLVQAGGSLSLSCAASGSILPYNTMGWDRQAPGKERELVAAITSGVGSTYADSVKGRFTISRDNAKNTVYLQMNSLKPEDTAVYYCNASESAIPIGDLGDYWGQGTQVTVSS”, the “polyreactivity (PSR sort gate)” value was “low polyreactivity”.
Consider “QVQLVESGGGLVQAGGSLSLSCAASGSILQLYAMGWYRQAPGTERELVAAITESAGSKSYADSVKGRFTISRDNAKITVYLQMNSLKPEDTAVYYCNAEYSAYSGFDVEWSLDYDYWGQGTQVTVSS”, for which the “polyreactivity (PSR sort gate)” value is on record as “low polyreactivity”.
On to “QVQLVESGGGLVQAGGSLSLSCAASGSISLVYAMGWYRQAPGKERELVAAISASGGRTYYADSVKGRFTISRDNAKNTVYLQMNSLKPEDTAVYYFSKDVKKIEFDYWGQGTQVTVSS”, for which the “polyreactivity (PSR sort gate)” value was “high polyreactivity”.
The result for “QVQLVESGGGLVQAGGSLSLSCAASGSNFKAYAMGWYRQAPGKERELVAAITKSGGRTYYADSVKGRFTISRDNAKNTVYLQMKSLNPEDTAVYSCAAVFRPDSSAYRYYYWGQGTQVTVST” reads “high polyreactivity”.
